Among the data in PMC4282423 are binding values, retold here.

In this data set the target is T1, BldD (His-tagged) (Streptomyces coelicolor) (UniProt Q7AKQ8).
T1 sequence: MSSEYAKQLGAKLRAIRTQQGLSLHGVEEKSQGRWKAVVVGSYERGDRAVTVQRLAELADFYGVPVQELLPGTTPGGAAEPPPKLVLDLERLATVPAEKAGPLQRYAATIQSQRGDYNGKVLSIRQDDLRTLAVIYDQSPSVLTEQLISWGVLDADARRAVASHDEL
Description: DNase I footprinting. Particulars: EMSA and extract footprinting: 25 mM HEPES pH 7.5, 4 mM DTT, 1 mM ATP, 10 mM Mg-acetate, 4% glycerol, 1 ug poly(dI-dC), 30 C, 20 min; purified BldD …. (In EMSA bound probe runs differently from free probe, usually more slowly.)

For the sequence “GTGCAGGCCGTCAGCAGCAGGGCGGAGGCGCCCAGGGCACCGACCACGGCCAGCGAACGCAAGGGGGGAAGTCGTCGTGCAGAGCTCATGATGCTGTCCGTAACCGCTCCGTCACGCAGACACACCGGACCGGTATGAAAATCACCCTATTGGCCGGGGTGGGGCGACGTCCCGTGGGCGGCGGGACCGGGAGCCTTCAG (double strand) [sspA promoter footprint probe (7434_F1/7434_R1)]”, the binding result is “binds”.
